According to patent publication US20220411514A1, “ANTI-GAL3 ANTIBODIES AND METHODS OF USE FOR INSULIN RESISTANCE” (TrueBinding, Inc., priority 2021, published 2022):
Residue numbers refer to the chain shown, from its start.

B1: 6H6.2D6 (antibody, V domains shown)
VH: QIQLVQSGPELKKPGETVKISCKASGYTFTTYGMSWVKQAPGKGLKWMAWINTYSGVPTYADDFKGRFAFSLETSASTAYLQINNLTNEDTATYFCARGPYAMDYWGQGTSVTVSS
VL: DIQMTQTTSSLSASLGDRVTISCSASQGISNYLNWYQQKPDGTVKLLIYYTSSLHSGVPSRFSGSGSGTDYSLTISNLEPEDIATYYCQQYSELPYTFGSGTKLEIKR
B2: 20D11.2C6 (antibody, V domains shown)
VH: EVQLQQSGPELVKPGASVKISCKASGYTFTDFYINWVKQSHGKSLEWIGDINPKNGGINYNPKFKIKATLTVDKSSSTSYMDLRGLTSEDSAVYYCTSGYGFPYWGQGTLVTVSA
VL: DIQMNQSPSSLSASLGDTITITCRASQNIYIWLSWYQQKPGNIPKLLIYKASNLHTGVPSRFSGSGSGTDFTLTISTLQPEDIATYFCLQGQSYPLTFGAGTKLEMKR
B3: 2D10.2B2 (antibody, V domains shown)
VH: QVQLQQSGPELVKPGASVKISCKASGYTFTDYYINWVKQRPGQGLEWIGWIYPGSNDTKYNEKFKGKATLTVDTSSSTAYMQLGSLTSEDSAVYFCANYFGCSGWFFDVWGTGTTVTVSS
VL: DIVMTQAAFSNPVTLGTSASISCRSSKSLLHSDGITYLYWYLQRPGQSPQLLIYRMSNLASGVPDRFSGSGSGTDFTLRISRVEAEDVGVYYCAQMIEFPLTFGAGTILELKR
B4: 4A11.2B5 (antibody, V domains shown)
VH: QVQLQQSGPELVKPGASVKISCKASGYSFTNYYIHWVKQRPGQGLEWIGWIYPGSGNTNYNEKFKGKATLTADTSSSTTNMQLSSLTSEDSAVYYCSTAPGGFDVWGSGTTVTVSS
VL: B3 VL with I97L, I108K

molecular target: Human Galectin-3 protein (Acro Biosystems, GA3-H5129) (human) (UniProt P17931); experiment: ELISA, INSR binding to coated Gal3 with 3 ug/mL antibody
Sequence (P17931 2-250): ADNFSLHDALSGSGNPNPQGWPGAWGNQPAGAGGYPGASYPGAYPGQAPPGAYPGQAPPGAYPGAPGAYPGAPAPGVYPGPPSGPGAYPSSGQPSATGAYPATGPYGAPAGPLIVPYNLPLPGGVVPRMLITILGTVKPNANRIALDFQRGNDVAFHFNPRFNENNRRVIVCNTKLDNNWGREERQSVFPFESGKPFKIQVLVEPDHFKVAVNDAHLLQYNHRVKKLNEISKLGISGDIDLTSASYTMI

Gal3-INSR binding left, % of unblocked sample, < 5%:
B1
B2
B3
B4
